B1: AF4H1K1 Fab (Fab, V domains shown)
VH: QVQLVESGGGVVQPGTSLRLSCEASGFTSSAYAMHWVRQAPGKGLEWVAVITFDGGYQYYADSVKGRFTISRDISRNTLHLHMNSLRAEDTAVYYCARDPLTKLLPFDWVSGGYFDYWGQGTLVTVSS
VL: not shown
notes: also called H1 paired with K1
B2: AF4H1/FI6v3L Fab (Fab, V domains shown)
VH: B1 VH
VL: not shown
notes: also called AF4H1/FI6L; hybrid MAb with heavy chain from AF4H1K1 and light chain from FI6v3
B3: AF4H1K1 Fab (Fab, V domains shown)
VH: B1 VH
VL: not shown
notes: also called AF4H1K1 Fab fragment
B4: AF4H1/L1CDR3m (antibody, V domains shown)
VH: B1 VH
VL: SYELTQPPSVSVSPGQTASITCSGDKLGDKYACWYQQKPGQSPVLVIYQDSKRPSGIPERFSGSNSGNTATLTISGTQAMDEADYYCQQYGSSFTFGTGTKVTVL
notes: IgG; copies: 2 + 2

Columns and labels:
Details in all cases: both partners purified
[1] = target: Recombinant hemagglutinin of H3N2 A/Aichi/2/1968, ectodomain, monomeric (Influenza A virus A/Aichi/2/1968 (H3N2), strain); test: SPR
[2] = target: Recombinant hemagglutinin of H4N6 A/duck/Czech/1956, ectodomain, monomeric (Influenza A virus A/duck/Czech/1956 …, strain); test: SPR
[3] = target: Recombinant hemagglutinin of H7N9 A/Anhui/1/2013, ectodomain (Influenza A virus A/Anhui/1/2013 …, UniProt A0A024E3P0, strain); test: SPR
[4] = target: Recombinant hemagglutinin of H10N8 A/Jiangxi-Donghu/346/2013, ectodomain, monomeric (Influenza A virus …, strain); test: SPR
[5] = target: Recombinant hemagglutinin of H14N6 A/long-tailed duck/Wisconsin/10OS3912/2010, ectodomain, monomeric (Influenza A virus A/long-tailed …, UniProt G5DSS3, strain); test: SPR
[6] = target: Recombinant hemagglutinin of H15N8 A/duck/Australia/341/1983, ectodomain, monomeric (Influenza A virus …, UniProt Q82565, strain); test: SPR
[7] = target: H14 HA (H14N6 A/long-tailed duck/Wisconsin/10OS3912/2010) (Influenza A virus A/long-tailed …, UniProt G5DSS3); test: SPR
H3 HA (strain not given) [8] = target: T1, H3 HA (strain not given) (Influenza A virus A/Aichi/2/1968 (H3N2)); test: SPR
H3 HA (strain not given) [9] = target: T1, H3 HA (strain not given); test: ELISA

Row | Binder | Kd [1] | Kd [2] | Kd [3] | Kd [4] | Kd [5] | Kd [6] | binding result [7] | binding result (H3 HA (strain not given) [8]) | binding result (H3 HA (strain not given) [9])
1 | B1 | 0.79 nM | 9 nM | 14 nM | 21 nM | 16 nM | – | – | – | –
2 | B2 | 0.0764 nM | 1.93 nM | 11.2 nM | 37.7 nM | 15.9 nM | 518 nM | – | – | –
3 | B3 | – | – | – | – | – | – | binds | binds | –
4 | B4 | – | – | – | – | – | – | – | – | no binding

Source: article PMC6465249 (Cell Discovery, 2019)
